According to the supplement of paper PMC7877785:
± gives the uncertainty stated by the source.

Test: self-splicing fitness, log relative to wild type (ln ratio); higher = more splicing; Tetrahymena group I intron in knt gene, E. coli kanamycin selection, DiMSum; sequences stand for … in CUCUCU…GGAGGGAAAAGUUAUCAGGCAUGCACCUGGUAGCUAGUCUUUAAACCAAUAGAUUGCAUCGGUUUAAAAGGCAAGACCGUCAAAUUGCGGGAAAGGGGUCAACAGCCGUUCAGUACCAAGUCUCAGGGGAAACUUUGAGAUGGCCUUGCAAAGGGUAUGGUAAUAAGCUGACGGACAUGGUCCUAACCACGCAGCCAAGUCCUAAGUCAACAGAUCUUCUGUUGAUAUGGAUGCAGUUCACAGACUAAAUGUCGGUCGGGGAAGAUGUAUUCUUCUCAUAAGAUAUAGUCGGACCUCUCCUUAAUGGGAGCUAGCGGAUGAAGUGAUGCAACACUGGAGCCGCUGGGAACUAAUUUGUAUGCGAAAGUAUAUUGAUUAGUUUUGGAGUACUCGUGGUCG
Outline: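 Six replicate transformations of E. coli BL21(DE3) with a pET-22b(+) library were grown overnight at 37°C or 30°C. The library randomised all eight P1ex-region intron nucleotides, the intron lying in the knt kanamycin-resistance gene, and plates were LB agar with or without 25 μg/mL kanamycin plus 100 μg/mL carbenicillin, 50 μM IPTG and 0.2% rhamnose. Pooled colonies were amplicon-sequenced on an Illumina HiSeq 2500, and fitness is the DiMSum error-weighted combination of wild-type-normalised replicate fold changes, kanamycin versus none.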

## CGCGAGCAAUAUUACGCGUC
30 °C
  self-splicing fitness (ln): -3.67 ± 0.28
37 °C
  self-splicing fitness (ln): -2.68 ± 0.22

## CGCGAGCAAUAUUACGGACG
37 °C
  self-splicing fitness (ln): -1.75 ± 0.42

## CGCGAGCAAUAUUACGGCAG
30 °C
  self-splicing fitness (ln): -0.761 ± 0.1
37 °C
  self-splicing fitness (ln): -0.243 ± 0.13

## CGCGAGCAAUAUUACGGCUG
30 °C
  self-splicing fitness (ln): -0.795 ± 0.094
37 °C
  self-splicing fitness (ln): -0.637 ± 0.13

## CGCGAGCAAUAUUACGGGGG
30 °C
  self-splicing fitness (ln): -3.45 ± 0.38
37 °C
  self-splicing fitness (ln): -3.07 ± 0.32

## CGCGAGCAAUAUUACGUACC
37 °C
  self-splicing fitness (ln): -2.69 ± 0.35

## CGCGAGCAAUAUUACGUCGA
30 °C
  self-splicing fitness (ln): -4.28 ± 0.46
37 °C
  self-splicing fitness (ln): -2.73 ± 0.24

## CGCGAGCAAUAUUACGUCUA
30 °C
  self-splicing fitness (ln): -1.42 ± 0.17
37 °C
  self-splicing fitness (ln): -0.973 ± 0.26

## CGCGAGCAAUAUUACGUGCU
30 °C
  self-splicing fitness (ln): -2.71 ± 0.14
37 °C
  self-splicing fitness (ln): -2 ± 0.22

## CGCGAGCAAUAUUACGUGGC
30 °C
  self-splicing fitness (ln): -2.53 ± 0.18
37 °C
  self-splicing fitness (ln): -2.16 ± 0.18

## CGCGAGCAAUAUUACGUUAA
30 °C
  self-splicing fitness (ln): -3.18 ± 0.16
37 °C
  self-splicing fitness (ln): -4.09 ± 0.36

## CGCUAGCAAUAUUACGAAAA
30 °C
  self-splicing fitness (ln): -1.65 ± 0.16
37 °C
  self-splicing fitness (ln): -1.98 ± 0.15

## CGCUAGCAAUAUUACGAAUA
30 °C
  self-splicing fitness (ln): -2.58 ± 0.19
37 °C
  self-splicing fitness (ln): -2.57 ± 0.23

## CGCUAGCAAUAUUACGAUGA
30 °C
  self-splicing fitness (ln): -1.14 ± 0.1
37 °C
  self-splicing fitness (ln): -0.401 ± 0.087

## CGCUAGCAAUAUUACGCCAU
30 °C
  self-splicing fitness (ln): -3.62 ± 0.3
37 °C
  self-splicing fitness (ln): -1.27 ± 0.27

## CGCUAGCAAUAUUACGCUAC
37 °C
  self-splicing fitness (ln): -2.29 ± 0.5

## CGCUAGCAAUAUUACGGACU
30 °C
  self-splicing fitness (ln): -0.928 ± 0.09
37 °C
  self-splicing fitness (ln): -1.08 ± 0.12

## CGCUAGCAAUAUUACGGCCG
30 °C
  self-splicing fitness (ln): -1.19 ± 0.17
37 °C
  self-splicing fitness (ln): -1.11 ± 0.14

## CGCUAGCAAUAUUACGGCUU
30 °C
  self-splicing fitness (ln): -0.961 ± 0.081
37 °C
  self-splicing fitness (ln): -0.559 ± 0.1

## CGCUAGCAAUAUUACGGGAC
37 °C
  self-splicing fitness (ln): -2.63 ± 0.22

## CGCUAGCAAUAUUACGGGAG
30 °C
  self-splicing fitness (ln): -2.79 ± 0.1
37 °C
  self-splicing fitness (ln): -1.43 ± 0.082

## CGCUAGCAAUAUUACGGUGG
30 °C
  self-splicing fitness (ln): -1.71 ± 0.12
37 °C
  self-splicing fitness (ln): -2.3 ± 0.17

## CGGAAGCAAUAUUACGAAUU
30 °C
  self-splicing fitness (ln): -3.28 ± 0.36
37 °C
  self-splicing fitness (ln): -2.77 ± 0.44

## CGGAAGCAAUAUUACGACCC
30 °C
  self-splicing fitness (ln): -0.496 ± 0.27
37 °C
  self-splicing fitness (ln): -0.781 ± 0.33

## CGGAAGCAAUAUUACGAGAU
37 °C
  self-splicing fitness (ln): -2.18 ± 0.33

## CGGAAGCAAUAUUACGAGGG
30 °C
  self-splicing fitness (ln): -0.374 ± 0.41

## CGGAAGCAAUAUUACGAUGG
30 °C
  self-splicing fitness (ln): -0.404 ± 0.096
37 °C
  self-splicing fitness (ln): 0.233 ± 0.13

## CGGAAGCAAUAUUACGCCGC
30 °C
  self-splicing fitness (ln): -2.96 ± 0.28
37 °C
  self-splicing fitness (ln): -2.51 ± 0.35

## CGGAAGCAAUAUUACGGCGC
30 °C
  self-splicing fitness (ln): -1.89 ± 0.37
37 °C
  self-splicing fitness (ln): -0.448 ± 0.28

## CGGAAGCAAUAUUACGGGAA
30 °C
  self-splicing fitness (ln): -3.16 ± 0.46
37 °C
  self-splicing fitness (ln): -2.3 ± 0.28

## CGGAAGCAAUAUUACGGGGG
30 °C
  self-splicing fitness (ln): -3.72 ± 0.13
37 °C
  self-splicing fitness (ln): -3.16 ± 0.13

## CGGAAGCAAUAUUACGGUCA
30 °C
  self-splicing fitness (ln): -0.599 ± 0.078
37 °C
  self-splicing fitness (ln): 0.421 ± 0.08

## CGGAAGCAAUAUUACGGUCG
30 °C
  self-splicing fitness (ln): -1.55 ± 0.099
37 °C
  self-splicing fitness (ln): -0.978 ± 0.12

## CGGAAGCAAUAUUACGGUGU
30 °C
  self-splicing fitness (ln): -3.77 ± 0.18
37 °C
  self-splicing fitness (ln): -2.1 ± 0.12

## CGGAAGCAAUAUUACGGUUA
30 °C
  self-splicing fitness (ln): -1.96 ± 0.18
37 °C
  self-splicing fitness (ln): -2.25 ± 0.2

## CGGAAGCAAUAUUACGGUUC
30 °C
  self-splicing fitness (ln): -3.49 ± 0.3
37 °C
  self-splicing fitness (ln): -2.85 ± 0.25

## CGGAAGCAAUAUUACGGUUU
30 °C
  self-splicing fitness (ln): -4.42 ± 0.36
37 °C
  self-splicing fitness (ln): -3.88 ± 0.31

## CGGAAGCAAUAUUACGUCGG
30 °C
  self-splicing fitness (ln): -0.77 ± 0.064
37 °C
  self-splicing fitness (ln): 0.0281 ± 0.099

## CGGAAGCAAUAUUACGUGAA
30 °C
  self-splicing fitness (ln): -3.4 ± 0.17
37 °C
  self-splicing fitness (ln): -1.66 ± 0.15

## CGGAAGCAAUAUUACGUGAG
30 °C
  self-splicing fitness (ln): -0.991 ± 0.058
37 °C
  self-splicing fitness (ln): -0.391 ± 0.085

## CGGAAGCAAUAUUACGUUCG
30 °C
  self-splicing fitness (ln): -2.69 ± 0.18
37 °C
  self-splicing fitness (ln): -2.29 ± 0.34

## CGGAAGCAAUAUUACGUUUC
30 °C
  self-splicing fitness (ln): -4.04 ± 0.29
37 °C
  self-splicing fitness (ln): -2.69 ± 0.23

## CGGCAGCAAUAUUACGAACA
30 °C
  self-splicing fitness (ln): -0.789 ± 0.096
37 °C
  self-splicing fitness (ln): -0.204 ± 0.12

## CGGCAGCAAUAUUACGAAGU
30 °C
  self-splicing fitness (ln): -3.35 ± 0.28
37 °C
  self-splicing fitness (ln): -0.302 ± 0.2

## CGGCAGCAAUAUUACGAAUG
30 °C
  self-splicing fitness (ln): 0.0635 ± 0.086
37 °C
  self-splicing fitness (ln): -0.00804 ± 0.099

## CGGCAGCAAUAUUACGACAG
30 °C
  self-splicing fitness (ln): 0.187 ± 0.11
37 °C
  self-splicing fitness (ln): -1.27 ± 0.12

## CGGCAGCAAUAUUACGACCC
30 °C
  self-splicing fitness (ln): -0.681 ± 0.19
37 °C
  self-splicing fitness (ln): 0.752 ± 0.29

## CGGCAGCAAUAUUACGACUA
30 °C
  self-splicing fitness (ln): -0.68 ± 0.097
37 °C
  self-splicing fitness (ln): 0.0629 ± 0.12

## CGGCAGCAAUAUUACGAGCC
30 °C
  self-splicing fitness (ln): -2.78 ± 0.24
37 °C
  self-splicing fitness (ln): -1.37 ± 0.21
